The values below come from patent US20250019450A1 (DIAGONAL THERAPEUTICS, published 2025).

The EC50 is the concentration giving half of the maximal effect. Read a low EC50 as greater potency.

B1: DGL400 (bispecific antibody, human IgG1, kappa)
heavy 1: not shown
heavy 2: QVQLVESGGGLVQAGGSLRLSCAASGRTFSRYRMGWFRQAPGKEREFVAAITKSGATTYDADSVKGRFTISRDNAKNTLYLQMNSLKPEDTAVYYCAASYHSNWWPKNADEYAYWGQGTQVTVEPKSSDKTHTCPPCPAPEAAGAPSVFLFPPKPKDTLMISRTPEVTCVVVDVSHEDPEVKFNWYVDGVEVHNAKTKPREEQYNSTYRVVSVLTVLHQDWLNGKEYKCKVSNKALPAPIEKTISKAKGQPREPQVCTLPPSRDELTKNQVSLSCAVKGFYPSDIAVEWESNGQPENNYKTTPPVLDSDGSFFLVSKLTVDKSRWQQGNVFSCSVMHEALHNRFTQKSLSLSPG
light: DIQLTQSPSFLSASVGDRVTITCRASQGISSYLAWYQQKPGKAPKVLIYAASTLQSGVPSRFSGSGSGTEFTLTISSLLPEDFATYFCQQLHRYPYTFGQGAKLEIKRTVAAPSVFIFPPSDEQLKSGTASVVCLLNNFYPREAKVQWKVDNALQSGNSQESVTEQDSKDSTYSLSSTLTLSKADYEKHKVYACEVTHQGLSSPVTKSFNRGEC
B2: DGL398 (bispecific antibody, human IgG1, kappa)
heavy 1: not shown
heavy 2: QVQLVESGGGLVQAGGSLRLSCAASGRTFSSYAMGWFRQAPGKEREFVSAISWSGLSTYYVESVQGRFTISRDNAKNTVYLQMNSLKPEDTAVYYCAASRIYTNYVARSYEYDDWGQGTQVTVEPKSSDKTHTCPPCPAPEAAGAPSVFLFPPKPKDTLMISRTPEVTCVVVDVSHEDPEVKFNWYVDGVEVHNAKTKPREEQYNSTYRVVSVLTVLHQDWLNGKEYKCKVSNKALPAPIEKTISKAKGQPREPQVCTLPPSRDELTKNQVSLSCAVKGFYPSDIAVEWESNGQPENNYKTTPPVLDSDGSFFLVSKLTVDKSRWQQGNVFSCSVMHEALHNRFTQKSLSLSPG
light: DIQLTQSPSFLSASVGDRVTITCRASQGISSYLAWYQQQPGKPPKLLIYAASTLHSGVPSRFSGSGSGTEFTLTISSLQPEDFATYYCQQLNRYPYTCGQGTKLEIKRTVAAPSVFIFPPSDEQLKSGTASVVCLLNNFYPREAKVQWKVDNALQSGNSQESVTEQDSKDSTYSLSSTLTLSKADYEKHKVYACEVTHQGLSSPVTKSFNRGEC
B3: DGL425 (bispecific antibody, human IgG1, kappa)
heavy 1: not shown
heavy 2: EVQLVQSGTEVKKPGESLKISCKGSGYSFTSYWIGWVRQMPGKGLEWMGNIYPGDSDTRYSPSFQGHVTISADKSISTAYLQWSSLKASDTAMYYCARRGGGYWGQGTLVTVSSASTKGPSVFPLAPSSKSTSGGTAALGCLVKDYFPEPVTVSWNSGALTSGVHTFPAVLQSSGLYSLSSVVTVPSSSLGTQTYICNVNHKPSNTKVDKKVEPKSCDKTHTCPPCPAPEAAGAPSVFLFPPKPKDTLMISRTPEVTCVVVDVSHEDPEVKFNWYVDGVEVHNAKTKPREEQYNSTYRVVSVLTVLHQDWLNGKEYKCKVSNKALPAPIEKTISKAKGQPREPQVCTLPPSRDELTKNQVSLSCAVKGFYPSDIAVEWESNGQPENNYKTTPPVLDSDGSFFLVSKLTVDKSRWQQGNVFSCSVMHEALHNRFTQKSLSLSPG
light: not shown
B4: DGL571 (bispecific antibody, V domains shown)
V domain 1: QVQLVESGGGLVQAGGSLRLSCAASRSISSFNEMAWYRQAPGEQRELVATIVSTVGFTNYADSVKGRFTISRDNAKNTVYLQMNSLKAEDTAVYYCNARRISTDYWGQGTQVTVEP
V domain 2: QVQLVESGGGLVQPGGSLRLSCAASGFTFSNYAMSWIRQGPERGFEWVSRINSGGGTTSYADSVKGRFTISRDNAKNTLYLQMNSLKPEDTAVYYCAKHSHPDYSSNYYRPGQGTQVTVEP
B5: DGL442 (bispecific antibody, human IgG1, lambda)
heavy 1: not shown
heavy 2: QVHLQESGPGLVKPSETLSLTCTVSGGSISYYYWNWIRQPPGKGLEWIASIYNSGNINYNPSLKSRVTISVDTSKNQFSLKLTSVTAADTAVYYCARGGYSYGYFDNWGQGILVTVSSASTKGPSVFPLAPSSKSTSGGTAALGCLVKDYFPEPVTVSWNSGALTSGVHTFPAVLQSSGLYSLSSVVTVPSSSLGTQTYICNVNHKPSNTKVDKKVEPKSCDKTHTCPPCPAPEAAGAPSVFLFPPKPKDTLMISRTPEVTCVVVDVSHEDPEVKFNWYVDGVEVHNAKTKPREEQYNSTYRVVSVLTVLHQDWLNGKEYKCKVSNKALPAPIEKTISKAKGQPREPQVCTLPPSRDELTKNQVSLSCAVKGFYPSDIAVEWESNGQPENNYKTTPPVLDSDGSFFLVSKLTVDKSRWQQGNVFSCSVMHEALHNRFTQKSLSLSPG
light: SYELTQPPSVSVSPGQTASITCSGRELGNKYAYWYQQKPGQSPVLVIYEDYKRPSGIPERFSGSNSGNTATLTISGTQAMDEADYYCQAWDSSTVIFGGGTKLTVLGQPKAAPSVTLFPPSSEELQANKATLVCLISDFYPGAVTVAWKADSSPVKAGVETTTPSKQSNNKYAASSYLSLTPEQWKSHRSYSCQVTHEGSTVEKTVAPTECS
B6: DGL430 (bispecific antibody, human IgG1, lambda)
heavy 1: not shown
heavy 2: QVHLQESGPGLVKPSETLSLTCTVSGGSISYYYWNWIRQPPGKGLEWIASIYNSGNINYNPSLKSRVTISVDTSKNQFSLKLTSVTAADTAVYYCARGGYSYGYFDNWGQGILVTVSSASTKGPSVFPLAPSSKSTSGGTAALGCLVKDYFPEPVTVSWNSGALTSGVHTFPAVLQSSGLYSLSSVVTVPSSSLGTQTYICNVNHKPSNTKVDKKVEPKSCDKTHTCPPCPAPEAAGAPSVFLFPPKPKDTLMISRTPEVTCVVVDVSHEDPEVKFNWYVDGVEVHNAKTKPREEQYNSTYRVVSVLTVLHQDWLNGKEYKCKVSNKALPAPIEKTISKAKGQPREPQVCTLPPSRDELTKNQVSLSCAVKGFYPSDIAVEWESNGQPENNYKTTPPVLDSDGSFFLVSKLTVDKSRWQQGNVFSCSVMHEALHNRFTQKSLSLSPG
light: SYELTQPPSVSVSPGQTASITCSGRELGNKYAYWYQQKPGQSPVLVIYEDYKRPSGIPERFSGSNSGNTATLTISGTQAMDEADYYCQAWDSSTVIFGGGTKLTVLGQPKAAPSVTLFPPSSEELQANKATLVCLISDFYPGAVTVAWKADSSPVKAGVETTTPSKQSNNKYAASSYLSLTPEQWKSHRSYSCQVTHEGSTVEKTVAPTECS
B7: DGL465 (bispecific antibody, V domains shown)
V domain 1: QVQLVESGGGLVQAGGSLRLSCAASGRAFSRYSMGWFRQAPGKEREFVAANYWSNGWTDYADTVKGRFSISRDNAKNTVYLQMNSLKPEDTAVYYCAGRSSSIPSADVVGYDYWGQGTQVTVEP
V domain 2: QVQLVESGGGLVQPGGSLRLSCAASGFTFEPYDMSWFRQAPGKGPEWVSAIDKGGGAGATYYADSVKGRFTISRDNAKKTLYLQMKSLKPEDTAVYYCAITAGPYSDSTPRVAYRGEGTQVTVEP
B8: DGL407 (bispecific antibody, human IgG1, kappa)
heavy 1: not shown
heavy 2: QVQLVESGGGLVRPGGSLRLSCAASGFTFSSNGMHWFRQAPGKGLEWVSSIGSGGTSIYYADSVKGRFTISRDNAKNTLYLQMNSLKSDDTAVYYCSKEVTGATRGQGTQVTVEPKSSDKTHTCPPCPAPEAAGAPSVFLFPPKPKDTLMISRTPEVTCVVVDVSHEDPEVKFNWYVDGVEVHNAKTKPREEQYNSTYRVVSVLTVLHQDWLNGKEYKCKVSNKALPAPIEKTISKAKGQPREPQVCTLPPSRDELTKNQVSLSCAVKGFYPSDIAVEWESNGQPENNYKTTPPVLDSDGSFFLVSKLTVDKSRWQQGNVFSCSVMHEALHNRFTQKSLSLSPG
light: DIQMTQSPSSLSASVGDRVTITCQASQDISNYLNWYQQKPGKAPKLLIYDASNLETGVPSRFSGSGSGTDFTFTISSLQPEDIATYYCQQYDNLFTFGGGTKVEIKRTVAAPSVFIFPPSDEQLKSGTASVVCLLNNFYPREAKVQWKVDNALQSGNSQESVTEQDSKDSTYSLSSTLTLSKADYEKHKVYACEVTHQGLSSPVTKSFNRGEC
B9: DGL440 (bispecific antibody, human IgG1, lambda)
heavy 1: not shown
heavy 2: QVQLVQPGAEVKKPGASVKVSCKASGYTFTGYYMHWVRQAPGQGLEWMGWINPKSGGTNYAQKFQGRVTMTRDTSISTAYMELTRLRSDDTAVYYCARDQGYGDYVLKHWGQGTLVTVSSASTKGPSVFPLAPSSKSTSGGTAALGCLVKDYFPEPVTVSWNSGALTSGVHTFPAVLQSSGLYSLSSVVTVPSSSLGTQTYICNVNHKPSNTKVDKKVEPKSCDKTHTCPPCPAPEAAGAPSVFLFPPKPKDTLMISRTPEVTCVVVDVSHEDPEVKFNWYVDGVEVHNAKTKPREEQYNSTYRVVSVLTVLHQDWLNGKEYKCKVSNKALPAPIEKTISKAKGQPREPQVCTLPPSRDELTKNQVSLSCAVKGFYPSDIAVEWESNGQPENNYKTTPPVLDSDGSFFLVSKLTVDKSRWQQGNVFSCSVMHEALHNRFTQKSLSLSPG
light: SYVLTQPPSVSVAPGQTARITCGGDNIGSKSVHWYQQKPGQAPVPVVYDDSDRPSGIPERFSGSNSGNTATLTISRVEAGDEADYYCQVWDSSSDHVVFGGGTKLTVLGQPKAAPSVTLFPPSSEELQANKATLVCLISDFYPGAVTVAWKADSSPVKAGVETTTPSKQSNNKYAASSYLSLTPEQWKSHRSYSCQVTHEGSTVEKTVAPTECS
B10: DGL408 (bispecific antibody, human IgG1, kappa)
heavy 1: not shown
heavy 2: QVQLVESGGGLVQPGGSLRLSCAASGFTFSNYAMSWVRQAPGKGLEWVSAINSDGTSTSYADSVKGQFTISRDNAKNTLYLQMNSLKPEDTAVYYCTKWEGDTDSDYKFKDYWGQGTQVTVEPKSSDKTHTCPPCPAPEAAGAPSVFLFPPKPKDTLMISRTPEVTCVVVDVSHEDPEVKFNWYVDGVEVHNAKTKPREEQYNSTYRVVSVLTVLHQDWLNGKEYKCKVSNKALPAPIEKTISKAKGQPREPQVCTLPPSRDELTKNQVSLSCAVKGFYPSDIAVEWESNGQPENNYKTTPPVLDSDGSFFLVSKLTVDKSRWQQGNVFSCSVMHEALHNRFTQKSLSLSPG
light: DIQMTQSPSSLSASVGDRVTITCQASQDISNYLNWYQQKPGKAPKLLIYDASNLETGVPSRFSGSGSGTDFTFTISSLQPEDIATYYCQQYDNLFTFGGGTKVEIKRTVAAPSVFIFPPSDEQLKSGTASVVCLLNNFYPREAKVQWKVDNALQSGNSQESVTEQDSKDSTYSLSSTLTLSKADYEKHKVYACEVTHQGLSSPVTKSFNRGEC
B11: DGL525 (bispecific antibody, V domains shown)
V domain 1: EVQLVESGGGLVQPGGSLRLFCAASRSIFNINIMGWYRQAPGKQREWLASITSGGSTFYADSVKDRFTISRDSVKNTVYLQMNSLKPEDTAAYYCNRYRSVPLNTVYPWGQGTLVTVEP
V domain 2: QVQLVESGGGLVQAGGSLRLSCAASGRTFSSYAMGWFRQAPGKEREFVSAISWSGLSTYYVESVQGRFTISRDNAKNTVYLQMNSLKPEDTAVYYCAASRIYTNYVARSYEYDDWGQGTQVTVEP
B12: DGL545 (bispecific antibody, V domains shown)
V domain 1: QVQLVESGGGAVQAGGSLRLSCAASGLTSRHYVMAWFRQAPGIEREFVASIWWGGSTYYADSVKDRFTISRDNAENTVYLQMNSLKPEDTAVYRCAVGTKIGTMGPRYDYWGQGTQVTVEP
V domain 2: QVQLVESGGGLVQAGGSLRLSCAASGRTFSSYAMGWFRQAPGKEREFVSAISWSGLSTYYVESVQGRFTISRDNAKNTVYLQMNSLKPEDTAVYYCAASRIYTNYVARSYEYDDWGQGTQVTVEP
B13: DGL547 (bispecific antibody, V domains shown)
V domain 1: EVQLVESGGGLVQPGGSLRLSCAASGFTLDYYAIGWFRQAPGKEREGVSCISSSDRSTWYADSVKGRFTISRDNAKNTVYLQMHSLKPEDTAVYYCATPCYSDYDPEGYEYDYWGQGTQVTVEP
V domain 2: QLQLVESGGGLVQAGGSLRLSCAASGLTFSGYTVGWFRQAPGKEREFVAAINWSSAYTYSEFVKGRFTISRDNAKNTVYLQMSSLKPEDTAVYYCAAQRSRTSWYASTAEAYDYWGQGTQVTVEP

For this test, the target named is human IL-12 receptor (IL-12Rβ1 and IL-12Rβ2) on HEK-Blue IL-12 cells (human, UniProt P42701 24-662; Q99665 24-862). Briefly: cell-based or functional assay.
human IL-12 receptor (IL-12Rβ1 and IL-12Rβ2) on HEK-Blue IL-12 cells, sequence (Q99665 24-862, chain 2 of 2, other chains not shown): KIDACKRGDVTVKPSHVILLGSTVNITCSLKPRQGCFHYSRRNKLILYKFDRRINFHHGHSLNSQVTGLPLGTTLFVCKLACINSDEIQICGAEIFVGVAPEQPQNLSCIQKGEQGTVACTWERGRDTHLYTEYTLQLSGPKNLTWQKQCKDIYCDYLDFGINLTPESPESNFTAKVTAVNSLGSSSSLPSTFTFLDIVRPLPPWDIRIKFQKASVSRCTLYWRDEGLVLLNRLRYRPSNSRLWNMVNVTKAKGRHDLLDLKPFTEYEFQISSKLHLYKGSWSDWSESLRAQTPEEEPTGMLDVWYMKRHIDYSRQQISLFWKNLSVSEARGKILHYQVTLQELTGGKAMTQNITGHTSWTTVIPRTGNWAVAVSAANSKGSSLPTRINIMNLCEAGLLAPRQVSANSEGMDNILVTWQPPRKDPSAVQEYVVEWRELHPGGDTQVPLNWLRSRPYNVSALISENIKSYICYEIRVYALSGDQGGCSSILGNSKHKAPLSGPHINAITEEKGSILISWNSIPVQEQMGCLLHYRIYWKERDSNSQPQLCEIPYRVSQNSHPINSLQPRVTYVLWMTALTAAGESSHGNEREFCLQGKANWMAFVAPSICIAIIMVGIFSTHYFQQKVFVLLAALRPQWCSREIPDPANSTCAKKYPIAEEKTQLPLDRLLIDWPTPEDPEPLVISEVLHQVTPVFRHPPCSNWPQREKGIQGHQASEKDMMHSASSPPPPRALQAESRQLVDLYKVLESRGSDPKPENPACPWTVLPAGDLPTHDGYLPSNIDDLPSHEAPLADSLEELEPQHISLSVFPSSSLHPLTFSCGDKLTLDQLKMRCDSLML
On to B1, for which the “Max Absorbance” value was found to be 0.21.

Turning to B2, the “Max Absorbance” value came out at 0.17.

On to B3, for which the “Max Absorbance” value amounted to 0.19.

With B4, the EC50 was over 0.1 µM and the “Max Absorbance” value worked out at 0.64.

For B5, the “Max Absorbance” value is 0.22.

Consider B6, for which the “Max Absorbance” value came out at 0.21.

In the case of B7, the EC50 was over 0.1 µM and the “Max Absorbance” value was 0.69.

B8: the “Max Absorbance” value was found to be 0.17.

Regarding B9, the “Max Absorbance” value was found to be 0.22.

Regarding B10, the “Max Absorbance” value was found to be 0.17.

For B11, the “Max Absorbance” value came out at 0.21.

As to B12, the EC50 was over 0.1 µM and the “Max Absorbance” value is 0.59.

In the case of B13, the “Max Absorbance” value came out at 0.18.
